Data: patent US10004792B2, “Peptides and combination of peptides for use in immunotherapy against various cancers” (immatics biotechnologies GmbH, priority 2015, dated 2018)

Assays:
HLA-A*02 = HLA-A*02 (Homo sapiens, UniProt P04439, D140Y/D185E/D98H/E176V/E277Q/G131W/G231S/I119V/I121R/I166T/I218V/L300P/N151K/N90K/P208A/P217A/Q86G/Q94H/R138H/R169H); assay: MHC binding assay (UV-ligand exchange, beta2m ELISA), HLA-A*02; conditions: peptide exchange yield, binding to HLA-A*02, UV-ligand exchange, β2m ELISA
From the text: (§1) Candidate peptides for T cell based therapies according to the present invention were further tested for their MHC binding capacity (affinity). The individual peptide-MHC complexes were produced by UV-ligand exchange, where a UV-sensitive peptide is cleaved upon UV-irradiation, and exchanged with the peptide of interest as analyzed. Only peptide candidates that can effectively bind and stabilize the peptide-receptive MHC molecules prevent dissociation of the MHC complexes. To determine the yield of the exchange reaction, an ELISA was performed based on the detection of the light chain (β2m) of stabilized MHC complexes. The assay was performed as generally described in Rodenko et al. (Rodenko et al., 2006).
(§2) 96 well MAXISorp plates (NUNC) were coated over night with 2 ug/ml streptavidin in PBS at room temperature, washed 4× and blocked for 1 h at 37° C. in 2% BSA containing blocking buffer. Refolded HLA-A*02:01/MLA-001 monomers served as standards, covering the range of 15-500 ng/ml. Peptide-MHC monomers of the UV-exchange reaction were diluted 100 fold in blocking buffer. Samples were incubated for 1h at 37° C., washed four times, incubated with 2 ug/ml HRP conjugated anti-62m for 1 h at 37° C., washed again and detected with TMB solution that is stopped with […]. Absorption was measured at 450 nm. Candidate peptides that show a high exchange yield (preferably higher than 50%, most preferred higher than 75%) are generally preferred for a generation and production of antibodies or fragments thereof, and/or T cell receptors or fragments thereof, as they show sufficient avidity to the MHC molecules and prevent dissociation of the MHC complexes.

CD8+ T cells = assay: In vitro immunogenicity: T-cell priming with aAPCs loaded with peptide/MHC and anti-CD28, multimer staining; format: cell-based, human; conditions: for Wells positive [%]: in vitro immunogenicity of HLA class I peptides, peptide-specific multimer staining after aAPC priming of CD8+ T cells; for Wells (in vitro immunogenicity): healthy donor CD8+ T cells, three stimulation cycles, multimer readout
From the text: In order to obtain information regarding the immunogenicity of the TUMAPs of the present invention, the inventors performed investigations using an in vitro T-cell priming assay based on repeated stimulations of CD8+ T cells with artificial antigen presenting cells (aAPCs) loaded with peptide/MHC complexes and anti-CD28 antibody.
In order to perform in vitro stimulations by artificial antigen presenting cells loaded with peptide-MHC complex (pMHC) and anti-CD28 antibody, the inventors first isolated CD8+ T cells from fresh HLA-A*02 leukapheresis products via positive selection using CD8 microbeads (Miltenyi Biotec, Bergisch-Gladbach, Germany) of healthy donors obtained from the University clinics Mannheim, Germany, after informed consent.
PBMCs and isolated CD8+ lymphocytes were incubated in T-cell medium (TCM) until use consisting of RPMI-Glutamax (Invitrogen, Karlsruhe, Germany) supplemented with 10% heat inactivated human AB serum (PAN-Biotech, Aidenbach, Germany), 100 U/ml Penicillin/100 μg/ml Streptomycin (Cambrex, Cologne, Germany), 1 mM sodium pyruvate (CC Pro, Oberdorla, Germany), 20 µg/ml Gentamycin (Cambrex). 2.5 ng/ml IL7 (PromoCell, Heidelberg, Germany) and 10 U/ml IL-2 (Novartis Pharma, Nurnberg, Germany) were also added to the TCM at this step.
Generation of pMHC/anti-CD28 coated beads, T-cell stimulations and readout was performed in a highly defined in vitro system using four different pMHC molecules per stimulation condition and 8 different pMHC molecules per readout condition.
The purified co-stimulatory mouse IgG2a anti human CD28 Ab 9.3 (Jung et al., 1987) was chemically biotinylated using Sulfo-N-hydroxysuccinimidobiotin as recommended by the manufacturer (Perbio, Bonn, Germany). Beads used were 5.6 μm diameter streptavidin coated polystyrene particles (Bangs Laboratories, Illinois, USA).
pMHC used for positive and negative control stimulations were A*0201/MLA-001 (peptide […] (SEQ ID NO. 303) from modified Melan-A/MART-1) and A*0201/DDX5-001 ([…] from DDX5, SEQ ID NO. 304), respectively.
800.000 beads/200 μl were coated in 96-well plates in the presence of 4×12.5 ng different biotin-pMHC, washed and 600 ng biotin anti-CD28 were added subsequently in a volume of 200 μl. Stimulations were initiated in 96-well plates by co-incubating 1×10^6 CD8+ T cells with 2×10^5 washed coated beads in 200 μI TCM supplemented with 5 ng/ml IL-12 (PromoCell) for 3 days at 37° C. Half of the medium was then exchanged by fresh TCM supplemented with 80 U/ml IL-2 and incubating was continued for 4 days at 37° C. This stimulation cycle was performed for a total of three times. For the pMHC multimer readout using 8 different pMHC molecules per condition, a two-dimensional combinatorial coding approach was used as previously described (Andersen et al., 2012) with minor modifications encompassing coupling to 5 different fluorochromes. Finally, multimeric analyses were performed by staining the cells with Live/dead near IR dye (Invitrogen, Karlsruhe, Germany), CD8-FITC antibody clone SK1 (BD, Heidelberg, Germany) and fluorescent pMHC multimers. For analysis, a BD LSRII SORP cytometer equipped with appropriate lasers and filters was used. Peptide specific cells were calculated as percentage of total CD8+ cells. Evaluation of multimeric analysis was done using the FlowJo software (Tree Star, Oreg., USA). In vitro priming of specific multimer+CD8+ lymphocytes was detected by comparing to negative control stimulations.

HLA-A*24 = assay: MHC binding assay (UV-ligand exchange, beta2m ELISA), HLA-A*24; design: species or system human; conditions: peptide exchange yield, binding to HLA-A*24, UV-ligand exchange, β2m ELISA
From the text: as §1, §2

Substance | Peptide exchange (HLA-A*02) | Wells positive [%] (CD8+ T cells) | other results
92 (GLLFSLRSV; listed as Homo sapiens) [compound 92] | ++++ (>=75% = ++++) |  | 
82 (FIFDEAEKL; listed as Homo sapiens) [compound 82] | + (<20% = +) |  | 
167 (NYINRILKL; listed as Homo sapiens) [compound 167] |  | + (<20% = +) | Peptide exchange (HLA-A*24): ++++ (>=75% = ++++)
51 (LLFSRLCGA; listed as Homo sapiens) [compound 51] | ++++ (>=75% = ++++) |  | 
125 (SLADYEHFV; listed as Homo sapiens) [compound 125] | ++++ (>=75% = ++++) |  | 
133 (ALLPRLHQL; listed as Homo sapiens) [compound 133] | ++++ (>=75% = ++++) |  | 
16 (YTLDIPVLFGV; listed as Homo sapiens) [compound 16] | ++++ (>=75% = ++++) |  | 
258 (LLSERFINV; listed as Homo sapiens) [compound 258] | ++++ (>=75% = ++++) |  | 
147 (YLMDDTVEI; listed as Homo sapiens) [compound 147] | ++++ (>=75% = ++++) |  | 
158 (HYSQELSLLYL; listed as Homo sapiens) [compound 158] |  | + (<20% = +) | Peptide exchange (HLA-A*24): ++++ (>=75% = ++++)
42 (LLDSVSRL; listed as Homo sapiens) [compound 42] | + (<20% = +) |  | 
3 (KLEENGDLYL; listed as Homo sapiens) [compound 3] | ++++ (>=75% = ++++) |  | 
249 (GLCERLVSL; listed as Homo sapiens) [compound 249] | ++++ (>=75% = ++++) | + (<20% = +) | 
163 (DYLKGLASF; listed as Homo sapiens) [compound 163] |  | + (<20% = +) | Peptide exchange (HLA-A*24): ++++ (>=75% = ++++)
159 (LYNKGFIYL; listed as Homo sapiens) [compound 159] |  | ++++ (>=70% = ++++) | Peptide exchange (HLA-A*24): ++++ (>=75% = ++++)
34 (FLLATEVVTV; listed as Homo sapiens) [compound 34] | ++++ (>=75% = ++++) |  | 
248 (YLDRFLAGV; listed as Homo sapiens) [compound 248] | ++++ (>=75% = ++++) |  | 
84 (ALCPRIHEV; listed as Homo sapiens) [compound 84] | ++++ (>=75% = ++++) |  | 
14 (ILAKDLFEI; listed as Homo sapiens) [compound 14] | ++++ (>=75% = ++++) |  | 
126 (QMFQYFITV; listed as Homo sapiens) [compound 126] | ++++ (>=75% = ++++) |  | 
120 (VTPVTVSAV; listed as Homo sapiens) [compound 120] | + (<20% = +) |  | 
257 (GLYTDPCGV; listed as Homo sapiens) [compound 257] | ++++ (>=75% = ++++) |  | 

Substance | Peptide exchange (HLA-A*02) | Wells positive [%] (CD8+ T cells) | other results
12 (GLLPLLHRA; listed as Homo sapiens) [compound 12] | ++++ (>=75% = ++++) | ++++ (>=70% = ++++) | 
268 (QYLGQIQHI; listed as Homo sapiens) [compound 268] |  | + (<20% = +) | 
1 (LLYPEPWSV; listed as Homo sapiens) [compound 1] | ++++ (>=75% = ++++) |  | 
229 (AILAHLNTV; listed as Homo sapiens) [compound 229] | ++++ (>=75% = ++++) |  | 
29 (YLLDPSITL; listed as Homo sapiens) [compound 29] |  | + (<20% = +) | 
26 (ALQEELTEL; listed as Homo sapiens) [compound 26] |  | + (<20% = +) | 
295 (YYPGVILGF; listed as Homo sapiens) [compound 295] |  |  | Wells (in vitro immunogenicity) (CD8+ T cells): ++ (20%-49% = ++)
95 (GLLGSLFFL; listed as Homo sapiens) [compound 95] | ++++ (>=75% = ++++) |  | 
285 (HYPPVQVLF; listed as Homo sapiens) [compound 285] |  | + (<20% = +) | 
290 (KIVDFSYSV; listed as Homo sapiens) [compound 290] |  |  | Wells (in vitro immunogenicity) (CD8+ T cells): ++ (20%-49% = ++)
129 (RLQDILWFL; listed as Homo sapiens) [compound 129] | ++++ (>=75% = ++++) |  | 
153 (FISERVEVV; listed as Homo sapiens) [compound 153] | ++++ (>=75% = ++++) |  | 
218 (YYKSTSSAF; listed as Homo sapiens) [compound 218] |  | + (<20% = +) | 
112 (SLGKFTFDV; listed as Homo sapiens) [compound 112] | ++++ (>=75% = ++++) |  | 
245 (SLLDLPLSL; listed as Homo sapiens) [compound 245] | ++++ (>=75% = ++++) |  | 
165 (DYTTWTALL; listed as Homo sapiens) [compound 165] |  | + (<20% = +) | Peptide exchange (HLA-A*24): ++++ (>=75% = ++++)
100 (ALLGMIIVGV; listed as Homo sapiens) [compound 100] | + (<20% = +) |  | 
4 (KLMPGTYTL; listed as Homo sapiens) [compound 4] | ++++ (>=75% = ++++) | + (<20% = +) | 
5 (GIVAHIQEV; listed as Homo sapiens) [compound 5] |  | + (<20% = +) | 
292 (GMMTAILGV; listed as Homo sapiens) [compound 292] |  |  | Wells (in vitro immunogenicity) (CD8+ T cells): + (<20% = +)
204 (TYELRYFQI; listed as Homo sapiens) [compound 204] |  | + (<20% = +) | Peptide exchange (HLA-A*24): ++++ (>=75% = ++++)
